Assays:
CCR1 = biological target: T1, CCR1 (UniProt P32246); assay: cell-based or functional assay
T1 sequence (looked up): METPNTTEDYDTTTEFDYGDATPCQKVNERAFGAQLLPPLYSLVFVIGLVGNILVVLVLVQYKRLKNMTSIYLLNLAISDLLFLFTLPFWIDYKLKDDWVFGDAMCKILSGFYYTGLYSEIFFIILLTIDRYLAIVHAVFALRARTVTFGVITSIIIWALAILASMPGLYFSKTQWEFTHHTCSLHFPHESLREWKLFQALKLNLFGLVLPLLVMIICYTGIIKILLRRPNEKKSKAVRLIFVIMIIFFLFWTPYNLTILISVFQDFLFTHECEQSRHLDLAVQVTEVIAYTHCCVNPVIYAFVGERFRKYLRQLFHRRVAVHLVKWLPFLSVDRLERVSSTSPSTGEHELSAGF

CCR5 (human) = CCR5 (human) (UniProt P51681); assay: cell-based or functional assay
CCR5 (human), sequence (P51681 whole entry): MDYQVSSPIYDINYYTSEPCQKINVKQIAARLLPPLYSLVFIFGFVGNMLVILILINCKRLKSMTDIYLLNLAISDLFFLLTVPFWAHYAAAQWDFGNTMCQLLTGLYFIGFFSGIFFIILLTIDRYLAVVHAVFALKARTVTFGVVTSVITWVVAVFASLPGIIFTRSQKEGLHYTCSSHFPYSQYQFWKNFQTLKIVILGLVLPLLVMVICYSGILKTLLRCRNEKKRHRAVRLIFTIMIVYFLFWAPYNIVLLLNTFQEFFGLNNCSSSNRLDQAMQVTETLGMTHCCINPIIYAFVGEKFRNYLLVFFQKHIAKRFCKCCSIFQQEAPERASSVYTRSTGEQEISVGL

RANTES(3-68), sequence (P13501 26-91 limits assumed): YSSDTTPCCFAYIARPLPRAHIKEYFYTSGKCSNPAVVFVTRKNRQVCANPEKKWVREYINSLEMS
RANTES(1-68), sequence (P13501 24-91): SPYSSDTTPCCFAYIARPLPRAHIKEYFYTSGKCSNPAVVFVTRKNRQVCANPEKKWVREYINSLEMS

| Substance | concentration at which the Ca2+ response saturated (Fura-2, HOS-CD4 cells expressing CCR1) (CCR1) [nM] | concentration sufficient to induce a maximal Ca2+ response (Fura-2, HEK-293 cells expressing CCR5) (CCR5 (human)) [nM] | amount required to produce a detectable Ca2+ response, relative to RANTES(1-68) (Fura-2, HOS-CD4 cells expressing CCR1) (times that for RANTES(1-68)) (CCR1) |
| --- | --- | --- | --- |
| RANTES(1-68) (from UniProt P13501 24-91) (ligand) | 50 | 10 | – |
| RANTES(3-68) (from UniProt P13501 26-91) (ligand) | > 200 | 10 | 100 |

Reference: US20030229203A1
